From article doi:10.1101/2021.04.07.438776

Target: N-terminal 6X-His-Tagged Caspar (Drosophila)
Test: SEC

- stoichiometry N: 2
Substance: N-terminal 6X-His-Tagged Caspar (natural protein)
